Substrate in the series: CC(=O)SCC[N+](C)(C)C
The series is described as follows: Steady state kinetics of substrate hydrolysis, HuBChE. The format is biochemical, human. The note with it: other: HuBChE, equation 1, 50 mM sodium phosphate pH 8.0, 22 °C.

B1: HuBChE (Homo sapiens) (protein)
chain: EDDIIIATKNGKVRGMNLTVFGGTVTAFLGIPYAQPPLGRLRFKKPQSLTKWSDIWNATKYANSCCQNIDQSFPGFHGSEMWNPNTDLSEDCLYLNVWIPAPKPKNATVLIWIYGGGFQTGTSSLHVYDGKFLARVERVIVVSMNYRVGALGFLALPGNPEAPGNMGLFDQQLALQWVQKNIAAFGGNPKSVTLFGESAGAASVSLHLLSPGSHSLFTRAILQSGSFNAPWAVTSLYEARNRTLNLAKLTGCSRENETEIIKCLRNKDPQEILLNEAFVVPYGTPLSVNFGPTVDGDFLTDMPDILLELGQFKKTQILVGVNKDEGTAFLVYGAPGFSKDNNSIITRKEFQEGLKIFFPGVSEFGKESILFHYTDWVDDQRPENYREALGDVVGDYNFICPALEFTKKFSEWGNNAFFYYFEHRSSKLPWPEWMGVMHGYEIEFVFGLPLERRDNYTKAEEILSRSIVKRWANFAKYGNPNETQNNSTSWPVFKSTEQKYLTLNTESTRIMTKLRAQQCRFWTSFFPKVLEMTGNIDEAEWEWKAGFHRWNNYMMDWKNQFNDYTSKKESCVGL
In general, Km refers to the concentration of substrate that gives half-maximal velocity. As for B1, the Michaelis-Menten constant (Km) was determined as 31 ± 4 µM, the kcat is 23±2 x10^3 min^−1 and the kcat/Km was 697±14 ×10^3 min^−1 mM^−1.

For the origin of these results see article PMC6086383.
